# Reference: paper PMC7501309, “Structure and mechanism of a dehydratase/decarboxylase enzyme couple involved in polyketide β-methyl branch incorporation” (Scientific Reports, 2020)
# B1: PksH, bacillaene synthase dehydratase (wild type) (enzyme, Bacillus subtilis 168, UniProt P40805 1-259, looked up)
# chain: MDLVTYQTIKVRFQASVCYITFHRPEANNTINDTLIEECLQVLNQCETSTVTVVVLEGLPEVFCFGADFQEIYQEMKRGRKQASSQEPLYDLWMKLQTGPYVTISHVRGKVNAGGLGFVSATDIAIADQTASFSLSELLFGLYPACVLPFLIRRIGRQKAHYMTLMTKPISVQEASEWGLIDAFDAESDVLLRKHLLRLRRLNKKGIAHYKQFMSSLDHQVSRAKATALTANQDMFSDPQNQMGIIRYVETGQFPWEDQ
# notes: PksH of Bacillus subtilis 168, amplified from genomic DNA and cloned into pET28a (NdeI/XhoI); The His tag is thrombin cleavable (pET28a); also called WT PksH; source: E. coli BL21(DE3), purified (HisTrap, Superdex 200 SEC)
# B2: PksI, bacillaene synthase decarboxylase (wild type) (enzyme, Bacillus subtilis 168)
# chain: MTHSVVELIEIESAIIQVKMQDRTHKNAFSQELTDDLIQAFEYIRQNPKYKAVILTGYDNYFASGGTQEGLLRIQQGLTKFTDDNLYSLALDCEIPVIAAMQGHGIGGGFVMGLFADIVILSRESVYTANFMKYGFTPGMGATFIVPKKLGFSLAQEILLNAGSYRGADLEKRGVPFKVLPRAEVLDYAVELAQELAEKPRNSLVTLKDHLVAPLRDQLPRVIEQELMMHEKTFHHEEVKSRIKGLYGN
# notes: PksI of Bacillus subtilis 168, amplified from genomic DNA and cloned into pOPINF; the crystal models hold residues 1-249; The His tag is 3C protease cleavable (pOPINF); also called WT PksI; source: E. coli BL21(DE3), purified (HisTrap, Superdex 200 SEC)
# Molecular target: the molecule itself
# Assay: SEC; analytical Superdex 200 10/60; 100 µl at 0.5 mg/ml; 50 mM Tris-HCl, 150 mM NaCl, 5% glycerol, pH 7.5 (legend: 20 mM Tris-HCl, 150 mM NaCl, pH 7.5); elution compared with standards
protein,measurement,value
B1,stoichiometry N,3
B2,stoichiometry N,3
